Consider one substance from patent publication US20210341448A1, “SCREENING METHOD FOR THERAPEUTIC DRUG OR PROPHYLACTIC DRUG FOR TAUOPATHY AND DIAGNOSTIC METHOD FOR TAUOPATHY” (National Center for Geriatrics and Gerontology, priority 2018, published 2021).

For the experiment, the target named is T1, NMDAR (Homo sapiens, UniProt Q05586).
T1 construct: endogenous in cells; host or cells: NT2-N neurons differentiated from NTERA-2 cl.D1 [NT2/D1] cells (ATCC CRL-1973)
As to the kind of experiment: Measurement of calcium influx through NMDAR into NT2-N cells. The experiment is classed as cell-based. On the procedure: Cultured neurons expressing NMDARs retaining physiological functions were prepared by the following procedure to evaluate the NMDAR activation ability of the tau oligomer. The NTERA-2 cl.D1[NT2/D1] cells (ATCC CRL-1973) (hereinafter described as “NT2 cell”), which are derived from a human pluripotent embryonic cancer, were adhesively cultured on 10-cm plastic dish in maintenance culture medium (high glucose DMEM (Sigma-Aldrich, D6429), 10% FBS, 100 U/ml penicillin/streptomycin) under the conditions of 37° C. and 5% CO2 for 3 to 4 days until the confluency stage was attained. The NT2 cells were detached using Accutase (Innovative Cell Technologies, #AT104), were passaged, and were maintained over a period of 50 days. The medium was replaced 3 times a week.
The maintenance-cultured NT2 cells were dispersed in a low attachment petri dish (STAR SDish9015, RIKAKEN CO., LTD.) in a concentration of 1.5×10^6 to 2.5×10^6/dish, suspension-cultured under the conditions of 37° C. and 5% CO2 on a shaker (100 rpm), and 1 day later were induced to differentiate by adding 1 μM of all-trans-retinoic acid (abcam), to thereby form spheroids. 14 days later, the spheroids were collected, seeded in a 10-cm dish coated with 5 μg/ml of poly-D-lysin (PDL) (Sigma-Aldrich)/Laminin (LAM) (iMatrix-511, Nippi Inc.) and adhesively cultured under the conditions of 37° C. and 5% CO2. From the following day, the culture was carried out by adding 3 kinds of cell division inhibitors (10 μM of uridine, 10 μM of floxuridine, and 1 μM of AraC). […]
For analysis, 5 to 10 regions of the visual field of the NT2-N cells positioned in the system were manually set and the fluorescence intensities were recorded for each region, for Cal-520, every 1 minute for 1 hour continuously at excitation wavelength 480 nm/fluorescence emission wavelength 520 nm, and for Fluo-8, every 2 seconds for 5 minutes continuously at excitation wavelength 480 nm/fluorescence emission wavelength 520 nm. […]

On to “tau oligomer: polymer of human tau 2N4R monomers, polymerized with mouse brain extract and ATP, collected as pellets”, for which the “increase of intracellular calcium concentration (NMDAR activation ability)” value (Cal-520, NT2-N cells, 3 minutes after administration) is “has the NMDAR activation ability”. The intracellular calcium concentration entry (Fluo-8, NT2-N cells, 100 μl of 0.03 μg/ml in HHBS) is “increased over time”.
